Experimental data as given in patent US20130273143A1 (UNIVERSITY OF CINCINNATI, published 2013).

Target: T1, Bcl-2 (mouse, UniProt P10417 1-236)
T1 construct: Endogenous protein from wild-type mouse heart homogenate
Assay: co-immunoprecipitation from WT mouse heart homogenate with anti-Hsp20 antibody, immunoblot with anti-Bcl-2
Excerpt: Mouse heart homogenates are immunoprecipitated with anti-Hsp20 (d) or anti-Bax antibodies (e). Proteins are separated on SDS-PAGE gels and probed with anti-Bax (d1) or anti-Hsp20 antibodies (e1). Then, membrane (d1) is stripped and re-probed with anti-Bcl-2(d2); subsequently, this membrane (d2) is re-stripped and re-probed with anti-Hsp20 (d3). Similarly, membrane (e1) is stripped and re-probed with anti-Bax antibodies (e2). […] Homogenates are obtained from pre-ischemic/reperfused (g and i) and post-ischemic/reperfused (h and j) WT and TG hearts that are subjected to occlusion of LAD artery for 30 minutes and reperfusion for 24 hours. Homogenates are extracted by use of a solubilization solution of 7 mol/L urea, 2 mol/L thiourea, 4% CHAPS, 20 mmol/L DTT, 20 mmol/L spermine, and 1 mmol/L PMSF. Extract is centrifuged (100 000 g, 1 hour, at 10° C.), and 500 μg from each preparation is separated by 2D electrophoresis, using isoelectric focusing strips (Immobiline Drystrips, 18 cm, pH 4 to 7). […]
Association of Hsp20 with Bax and Bcl-2 is studied using Dynabeads Protein G (Dynal Biotech) according to the manufacturer's instructions. […] Finally, the proteins are eluted off (using 0.1 mol/L citrate), and their identity is determined by immunoblotting.

T1 sequence (P10417 whole entry): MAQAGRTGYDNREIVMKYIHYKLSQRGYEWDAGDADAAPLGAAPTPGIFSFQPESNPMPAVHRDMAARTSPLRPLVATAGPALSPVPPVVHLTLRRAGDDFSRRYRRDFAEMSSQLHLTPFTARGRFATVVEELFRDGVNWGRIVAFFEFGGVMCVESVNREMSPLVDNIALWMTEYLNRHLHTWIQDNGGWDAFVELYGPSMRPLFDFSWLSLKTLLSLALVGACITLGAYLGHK

- binding result: no binding
B1: Heat-Shock Protein Hsp20 (other, mouse, UniProt Q5EBG6 1-162, looked up)
chain: MEIPVPVQPSWLRRASAPLPGFSAPGRLFDQRFGEGLLEAELASLCPAAIAPYYLRAPSVALPTAQVSTDSGYFSVLLDVKHFLPEEISVKVVDDHVEVHARHEERPDEHGFIAREFHRRYRLPPGVDPAAVTSALSPEGVLSIQATPASAQAQLPSPPAAK
notes: Endogenous protein from wild-type mouse heart homogenate, used in co-immunoprecipitation; also called mcHsp20
